Test results reported in patent US20190241619A1.

Molecular target: HLA-A1 (human)
Assay: experimental peptide-HLA binding affinity; method not described

Binder | Binding affinity
ETTDLYCY (modifications not checked) [HPV16 E7/18-25 peptide ETTDLYCY] | 11.5 µM
DLQPETTDLY (modifications not checked) [HPV16 E7/14-23 peptide …] | 1.62 µM

Molecular target: HLA-A2 (human)
Assay: as above

Binder | Binding affinity
MLDLQPET (modifications not checked) [HPV16 E7/12-19 peptide MLDLQPET] | 53.7 µM
YMLDLQPETT (modifications not checked) [HPV16 E7/11-20 peptide …] | 2.19 µM
MLDLQPETT (modifications not checked) [HPV16 E7/12-20 peptide …] | 3.6 µM
YMLDLQPETTD (modifications not checked) [HPV16 E7/11-21 peptide …] | 2.37 µM
YMLDLQPE (modifications not checked) [HPV16 E7/11-18 peptide YMLDLQPE] | 8.07 µM
